Laboratory results reported in article PMC2783235.
Values belong to the substance of their own block, whether it stands above or below them.

What was measured:
[1] = target: A281C (single-Cys mutant of FT-HT-Xa) (S. cerevisiae) (UniProt D6VTK4); assay: cross-linking
[2] = target: A281C (single-Cys mutant of FT-HT-Xa) (S. cerevisiae) (UniProt D6VTK4); assay: cross-linking; remark: listed apart in the source
[3] = target: A281C (single-Cys mutant of FT-HT-Xa) (S. cerevisiae) (UniProt D6VTK4); assay: SDS-PAGE and western blot of membranes
[4] = target: A281C (single-Cys mutant of FT-HT-Xa) (S. cerevisiae) (UniProt D6VTK4); assay: cross-linking; remark: listed apart in the source
[5] = target: A285C (single-Cys mutant of FT-HT-Xa) (S. cerevisiae) (UniProt D6VTK4); assay: cross-linking
[6] = target: A285C (single-Cys mutant of FT-HT-Xa) (S. cerevisiae) (UniProt D6VTK4); assay: cross-linking; remark: listed apart in the source
[7] = target: A285C (single-Cys mutant of FT-HT-Xa) (S. cerevisiae) (UniProt D6VTK4); assay: SDS-PAGE and western blot of membranes
[8] = target: A285C (single-Cys mutant of FT-HT-Xa) (S. cerevisiae) (UniProt D6VTK4); assay: cross-linking; remark: listed apart in the source
[9] = target: L283C (single-Cys mutant of FT-HT-Xa) (S. cerevisiae) (UniProt D6VTK4); assay: cross-linking
[10] = target: L283C (single-Cys mutant of FT-HT-Xa) (S. cerevisiae) (UniProt D6VTK4); assay: cross-linking; remark: listed apart in the source
[11] = target: L283C (single-Cys mutant of FT-HT-Xa) (S. cerevisiae) (UniProt D6VTK4); assay: SDS-PAGE and western blot of membranes
[12] = target: L283C (single-Cys mutant of FT-HT-Xa) (S. cerevisiae) (UniProt D6VTK4); assay: cross-linking; remark: listed apart in the source
[13] = target: L284C (single-Cys mutant of FT-HT-Xa) (S. cerevisiae) (UniProt D6VTK4); assay: cross-linking
[14] = target: L284C (single-Cys mutant of FT-HT-Xa) (S. cerevisiae) (UniProt D6VTK4); assay: cross-linking; remark: listed apart in the source
[15] = target: L284C (single-Cys mutant of FT-HT-Xa) (S. cerevisiae) (UniProt D6VTK4); assay: SDS-PAGE and western blot of membranes
[16] = target: L284C (single-Cys mutant of FT-HT-Xa) (S. cerevisiae) (UniProt D6VTK4); assay: cross-linking; remark: listed apart in the source
[17] = target: L287C (single-Cys mutant of FT-HT-Xa) (S. cerevisiae) (UniProt D6VTK4); assay: cross-linking
[18] = target: L287C (single-Cys mutant of FT-HT-Xa) (S. cerevisiae) (UniProt D6VTK4); assay: cross-linking; remark: listed apart in the source
[19] = target: L287C (single-Cys mutant of FT-HT-Xa) (S. cerevisiae) (UniProt D6VTK4); assay: SDS-PAGE and western blot of membranes
[20] = target: L287C (single-Cys mutant of FT-HT-Xa) (S. cerevisiae) (UniProt D6VTK4); assay: cross-linking; remark: listed apart in the source
[21] = target: L289C (single-Cys mutant of FT-HT-Xa) (S. cerevisiae) (UniProt D6VTK4); assay: cross-linking
[22] = target: L289C (single-Cys mutant of FT-HT-Xa) (S. cerevisiae) (UniProt D6VTK4); assay: cross-linking; remark: listed apart in the source
[23] = target: L289C (single-Cys mutant of FT-HT-Xa) (S. cerevisiae) (UniProt D6VTK4); assay: SDS-PAGE and western blot of membranes
[24] = target: L289C (single-Cys mutant of FT-HT-Xa) (S. cerevisiae) (UniProt D6VTK4); assay: cross-linking; remark: listed apart in the source
[25] = target: S288C (single-Cys mutant of FT-HT-Xa) (S. cerevisiae) (UniProt D6VTK4); assay: cross-linking
[26] = target: S288C (single-Cys mutant of FT-HT-Xa) (S. cerevisiae) (UniProt D6VTK4); assay: cross-linking; remark: listed apart in the source
[27] = target: S288C (single-Cys mutant of FT-HT-Xa) (S. cerevisiae) (UniProt D6VTK4); assay: SDS-PAGE and western blot of membranes
[28] = target: S288C (single-Cys mutant of FT-HT-Xa) (S. cerevisiae) (UniProt D6VTK4); assay: cross-linking; remark: listed apart in the source
[29] = target: T282C (single-Cys mutant of FT-HT-Xa) (S. cerevisiae) (UniProt D6VTK4); assay: cross-linking
[30] = target: T282C (single-Cys mutant of FT-HT-Xa) (S. cerevisiae) (UniProt D6VTK4); assay: cross-linking; remark: listed apart in the source
[31] = target: T282C (single-Cys mutant of FT-HT-Xa) (S. cerevisiae) (UniProt D6VTK4); assay: SDS-PAGE and western blot of membranes
[32] = target: T282C (single-Cys mutant of FT-HT-Xa) (S. cerevisiae) (UniProt D6VTK4); assay: cross-linking; remark: listed apart in the source
[33] = target: V280C (single-Cys mutant of FT-HT-Xa) (S. cerevisiae) (UniProt D6VTK4); assay: cross-linking
[34] = target: V280C (single-Cys mutant of FT-HT-Xa) (S. cerevisiae) (UniProt D6VTK4); assay: cross-linking; remark: listed apart in the source
[35] = target: V280C (single-Cys mutant of FT-HT-Xa) (S. cerevisiae) (UniProt D6VTK4); assay: SDS-PAGE and western blot of membranes
[36] = target: V280C (single-Cys mutant of FT-HT-Xa) (S. cerevisiae) (UniProt D6VTK4); assay: cross-linking; remark: listed apart in the source
[37] = target: V286C (single-Cys mutant of FT-HT-Xa) (S. cerevisiae) (UniProt D6VTK4); assay: cross-linking
[38] = target: V286C (single-Cys mutant of FT-HT-Xa) (S. cerevisiae) (UniProt D6VTK4); assay: cross-linking; remark: listed apart in the source
[39] = target: V286C (single-Cys mutant of FT-HT-Xa) (S. cerevisiae) (UniProt D6VTK4); assay: SDS-PAGE and western blot of membranes
[40] = target: V286C (single-Cys mutant of FT-HT-Xa) (S. cerevisiae) (UniProt D6VTK4); assay: cross-linking; remark: listed apart in the source

percent dimer [1]: 14.3%
percent dimer [2]: 11.3%
percent dimer [3]: 16.8%
percent dimer [4]: 11.9%
Substance: A281C (single-Cys mutant of FT-HT-Xa) (from UniProt D6VTK4 1-431) (receptor)

percent dimer [5]: 16.5%
percent dimer [6]: 17.7%
percent dimer [7]: 16.5%
percent dimer [8]: 53.5%
Substance: A285C (single-Cys mutant of FT-HT-Xa) (from UniProt D6VTK4 1-431) (receptor)

percent dimer [9]: 13.3%
percent dimer [10]: 10.7%
percent dimer [11]: 16.6%
percent dimer [12]: 15.7%
Substance: L283C (single-Cys mutant of FT-HT-Xa) (from UniProt D6VTK4 1-431) (receptor)

percent dimer [13]: 17.7%
percent dimer [14]: 15.3%
percent dimer [15]: 15.2%
percent dimer [16]: 12%
Substance: L284C (single-Cys mutant of FT-HT-Xa) (from UniProt D6VTK4 1-431) (receptor)

percent dimer [17]: 11.3%
percent dimer [18]: 16%
percent dimer [19]: 16%
percent dimer [20]: 14.3%
Substance: L287C (single-Cys mutant of FT-HT-Xa) (from UniProt D6VTK4 1-431) (receptor)

percent dimer [21]: 50.2%
percent dimer [22]: 40.9%
percent dimer [23]: 26.8%
percent dimer [24]: 61%
Substance: L289C (single-Cys mutant of FT-HT-Xa) (from UniProt D6VTK4 1-431) (receptor)

percent dimer [25]: 11.5%
percent dimer [26]: 12.6%
percent dimer [27]: 14.7%
percent dimer [28]: 14.7%
Substance: S288C (single-Cys mutant of FT-HT-Xa) (from UniProt D6VTK4 1-431) (receptor)

percent dimer [29]: 12%
percent dimer [30]: 11.7%
percent dimer [31]: 11.7%
percent dimer [32]: 15.4%
Substance: T282C (single-Cys mutant of FT-HT-Xa) (from UniProt D6VTK4 1-431) (receptor)

percent dimer [33]: 16.3%
percent dimer [34]: 12.4%
percent dimer [35]: 15.3%
percent dimer [36]: 14.7%
Substance: V280C (single-Cys mutant of FT-HT-Xa) (from UniProt D6VTK4 1-431) (receptor)

percent dimer [37]: 13.2%
percent dimer [38]: 15.9%
percent dimer [39]: 15.6%
percent dimer [40]: 17%
Substance: V286C (single-Cys mutant of FT-HT-Xa) (from UniProt D6VTK4 1-431) (receptor)
